Measurements as given in publication PMC3268748, “A novel cold-active β-D-galactosidase from the Paracoccus sp. 32d - gene cloning, purification and characterization” (Microbial Cell Factories, 2011).

Substrate: O=[N+]([O-])c1ccccc1O[C@@H]1O[C@H](CO)[C@H](O)[C@H](O)[C@H]1O
Test: purified protein
Format: biochemical, Paracoccus sp. 32d
Settings: 20 °C, 20 mM sodium phosphate pH 7.3, apparent Km, also measured at 10 and 30 °C

B1: BgaL; Paracoccus sp. 32d β-D-galactosidase (Paracoccus sp. 32d) (protein)
chain: MRVTQKLNHGWIFAEGAADPATPLAGETVTLPHNAVDLPLSYFDETSYQRAFTYQRVIAWDDAWQGRRVQLRFDGAMADNVVWVNGVQVVAHPDGYTPFVADLTDHLRPGDNLVTVRIDGSENPAIPPFGAQIDYLTYAGIYRDVWLMVLPERHLTNARILTPDALSDAKTVVIRPEVTAPGPVRARLLDGDREIAATEGEGELTLAGLTGLSLWSTDNPQLYTVELTLPDSGDVTTHRFGFRTAEWTPQGFLLNGQPMKLRGLNRHQSWAHQGYAAGRHAQERDAEIVRHDLCCNMVRTSHYPQSTWFLDRCDEIGLLVFEEIPGWQHIGDQAWQDRSVDNVRAMITRDWNHPSIVIWGVRINESPDNHDFYVRTNALARELDPTRAIGGVRCITDSEMLEDVYTMNDFILDESELPLINRPRTALRPTEEVTGIKKPVPYLVTEYNGHMFPTKAQDPELRQMEHVIRHLEVLNAAHGDPAISGCIGWCMFDYNTHKDFGAGDRICHHGVMDIWREPKFAAHAYGSQKPPSEGIVMEPVTFWARGERNIGGVLPLIVLTNCDEVEFECAGVTRRVGPDRERFPHLPRPPVIIDHRHISAEELGQWGMSWHPGRITGWLNGEQVALREYVADPLPTTLQIAPDRDTLPADGDIDLRVMLRALDQVGNRLPFLDAGIAVTVDGPARLIGPDLRMLQGGTTGMLLRLTGDAGTIRITARHPQFPEAVATVTVG
notes: E. coli LMG194, pBAD/Myc-His A with native stop codon (no tag), ion exchange purified; homodimer 161 kDa; GH2
**Q.** What does the source list for B1?
**A.** Km: 1180 ± 60 µM; kcat: 138 ± 2.19 s⁻¹; kcat/Km: 117000 M⁻¹ s⁻¹
